Experimental data as given in doi:10.1101/2021.12.01.470705 (bioRxiv, 2021).

T1: WWOX WW2 domain (amino acid 57-91) (human, UniProt Q9NZC7 57-91)
T1 chain (looked up): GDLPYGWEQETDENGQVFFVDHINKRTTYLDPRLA

T2: WWOX tandem WW1-WW2 domains (amino acid 16-91) (human, UniProt Q9NZC7 16-91)
T2 sequence (looked up): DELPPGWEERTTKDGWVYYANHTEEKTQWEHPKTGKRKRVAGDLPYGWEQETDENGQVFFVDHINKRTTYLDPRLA

T3: WWOX WW1 domain (amino acid 16-50) (human, UniProt Q9NZC7 16-50)
T3 chain (looked up): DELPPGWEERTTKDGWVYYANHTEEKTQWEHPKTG


Tests used:
[1] = biological target: WWOX tandem WW1-WW2 domains (amino acid 16-91) (human) (UniProt Q9NZC7); assay: NMR titration
[2] = biological target: WWOX tandem WW1-WW2 domains (amino acid 16-91) (human) (UniProt Q9NZC7); assay: ITC
[3] = biological target: T1, WWOX WW2 domain (amino acid 57-91); assay: ITC
[4] = biological target: T2, WWOX tandem WW1-WW2 domains (amino acid …); assay: ITC
[5] = biological target: T3, WWOX WW1 domain (amino acid 16-50); assay: ITC

Molecule	Kd [2]	also measured
ErbB4 single-motif peptide PY2	> 100 µM	–
KPGTVLPPPPYRHRN (peptide, UniProt Q15303 1291-1305, looked up) [ErbB4 1291-1305 (PY3) single-motif peptide]	–	Kd [3]: > 200 µM; Kd [4]: 30 µM; Kd [5]: 78 µM

More lines, main results first:

Kd [2]	Molecule	also measured
14 µM	ErbB4 double-motif peptide PY1PY2 (natural linker)	apparent KD, WW2 site [1]: 1000 µM
> 100 µM	ErbB4 single-motif peptide PY1	–
27 µM	PY3AY3, PY3PY3 peptide with PP-to-AA mutations in the C-terminal motif	–
